Measurements as given in patent publication US20060166868A1, “Vegf peptides and their use” (priority 2002, published 2006).
No end group written: not given here.

Assays:
[1] = test system: human umbilical vein endothelial cells (HUVEC) which express NP-1, KDR and Flt-1; assay: radiolabelled VEGF binding to HUVEC; conditions: FIG. 2
[2] = test system: KDR; assay: KDR Phosphorylation Assay; assay type: cell-based; conditions: FIG. 3; peptide at 10, 30 and 100 mM for 15 minutes, then 25 ng/ml VEGF for 10 minutes; immunoblot
Method: Cells were pretreated with peptide at 10, 30 and 100 mM for 15 minutes followed by treatment with 25 ng/ml VEGF for 10 minutes, and cells were immediately extracted by lysis buffer (64 mM Tris-HCl, pH 6.8, 0.2 mM Na3VO4, 2% SDS, 10% glycerol, 0.1 mM AEBSF, […] leupeptin). KDR phosphorylation was determined by immunoblotting cell extracts with antibodies which recognise either KDR phosphorylated at Tyrosines 1054 and 1059 (purchased from Oncogene Research Products Inc.) or total KDR (purchased from Santa Cruz Inc.). Immunoreactive bands were visualised by chemiluminescence using horseradish peroxidase-conjugated anti-rabbit IgG and ECL reagent.

[3] = target: T1, Neuropilin-1 (NP-1) (Homo sapiens, UniProt O14786); assay: 125I-VEGF165 binding to PAE/NP1 cells
T1 construct: expressed in transfected cells; host or cells: porcine aortic endothelial cells (PAE/NP1)

[4] = target: T2, NP-1 (Homo sapiens, UniProt O14786); assay: radiolabelled VEGF binding to MDA-MB-231 cells; conditions: FIG. 4; cells naturally express only NP-1 receptors for VEGF
T2 construct: the breast carcinoma cell line MDA-MB-231, that naturally expresses only NP-1 receptors for VEGF; endogenous in cells; host or cells: MDA-MB-231

[5] = target: T3, KDR (Homo sapiens, UniProt P35968); assay: 125I-VEGF165 binding to PAE/KDR cells; conditions: FIG. 2; cells expressing only KDR
T3 construct: expressed in transfected cells; host or cells: porcine aortic endothelial cells (PAE/KDR)

[6] = target: T4, Flt-1 (Homo sapiens, UniProt P17948); assay: 125I-VEGF165 binding to PAE/Flt-1 cells; conditions: FIG. 2; cells expressing only Flt-1
T4 construct: expressed in transfected cells; host or cells: porcine aortic endothelial cells (PAE/Flt-1)

[7] = test system: HUVECs; conditions: Soker et al, J. Biol. Chem. 272 (1997); cited from earlier work

T1 sequence (O14786 22-923, species assumed): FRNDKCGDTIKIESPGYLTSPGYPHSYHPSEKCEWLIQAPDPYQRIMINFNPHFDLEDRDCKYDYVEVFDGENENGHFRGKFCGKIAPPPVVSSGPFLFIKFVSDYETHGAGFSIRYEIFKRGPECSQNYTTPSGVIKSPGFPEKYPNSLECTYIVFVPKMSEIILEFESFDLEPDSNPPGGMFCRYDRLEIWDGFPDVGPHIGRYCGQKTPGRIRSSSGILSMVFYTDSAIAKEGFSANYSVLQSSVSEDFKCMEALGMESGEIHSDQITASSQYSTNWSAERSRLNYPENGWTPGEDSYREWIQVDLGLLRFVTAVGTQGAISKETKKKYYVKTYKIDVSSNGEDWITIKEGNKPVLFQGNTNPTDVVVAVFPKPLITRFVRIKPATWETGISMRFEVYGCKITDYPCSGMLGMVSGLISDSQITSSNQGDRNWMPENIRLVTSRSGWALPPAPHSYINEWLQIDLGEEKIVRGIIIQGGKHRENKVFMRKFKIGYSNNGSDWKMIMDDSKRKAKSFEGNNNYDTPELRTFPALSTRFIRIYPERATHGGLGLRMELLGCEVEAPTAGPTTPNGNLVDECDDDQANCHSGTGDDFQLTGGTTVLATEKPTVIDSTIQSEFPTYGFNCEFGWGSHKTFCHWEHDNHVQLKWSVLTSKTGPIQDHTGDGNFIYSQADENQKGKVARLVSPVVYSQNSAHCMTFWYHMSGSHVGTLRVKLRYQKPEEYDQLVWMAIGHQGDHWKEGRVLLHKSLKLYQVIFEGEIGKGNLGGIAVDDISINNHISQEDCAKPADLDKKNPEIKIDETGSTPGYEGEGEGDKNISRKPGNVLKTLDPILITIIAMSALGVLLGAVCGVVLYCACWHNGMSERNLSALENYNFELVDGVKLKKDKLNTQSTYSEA
T2 sequence (O14786 22-923): as the sequence (O14786 22-923, species assumed) above
T4 sequence (P17948 27-1338, species assumed): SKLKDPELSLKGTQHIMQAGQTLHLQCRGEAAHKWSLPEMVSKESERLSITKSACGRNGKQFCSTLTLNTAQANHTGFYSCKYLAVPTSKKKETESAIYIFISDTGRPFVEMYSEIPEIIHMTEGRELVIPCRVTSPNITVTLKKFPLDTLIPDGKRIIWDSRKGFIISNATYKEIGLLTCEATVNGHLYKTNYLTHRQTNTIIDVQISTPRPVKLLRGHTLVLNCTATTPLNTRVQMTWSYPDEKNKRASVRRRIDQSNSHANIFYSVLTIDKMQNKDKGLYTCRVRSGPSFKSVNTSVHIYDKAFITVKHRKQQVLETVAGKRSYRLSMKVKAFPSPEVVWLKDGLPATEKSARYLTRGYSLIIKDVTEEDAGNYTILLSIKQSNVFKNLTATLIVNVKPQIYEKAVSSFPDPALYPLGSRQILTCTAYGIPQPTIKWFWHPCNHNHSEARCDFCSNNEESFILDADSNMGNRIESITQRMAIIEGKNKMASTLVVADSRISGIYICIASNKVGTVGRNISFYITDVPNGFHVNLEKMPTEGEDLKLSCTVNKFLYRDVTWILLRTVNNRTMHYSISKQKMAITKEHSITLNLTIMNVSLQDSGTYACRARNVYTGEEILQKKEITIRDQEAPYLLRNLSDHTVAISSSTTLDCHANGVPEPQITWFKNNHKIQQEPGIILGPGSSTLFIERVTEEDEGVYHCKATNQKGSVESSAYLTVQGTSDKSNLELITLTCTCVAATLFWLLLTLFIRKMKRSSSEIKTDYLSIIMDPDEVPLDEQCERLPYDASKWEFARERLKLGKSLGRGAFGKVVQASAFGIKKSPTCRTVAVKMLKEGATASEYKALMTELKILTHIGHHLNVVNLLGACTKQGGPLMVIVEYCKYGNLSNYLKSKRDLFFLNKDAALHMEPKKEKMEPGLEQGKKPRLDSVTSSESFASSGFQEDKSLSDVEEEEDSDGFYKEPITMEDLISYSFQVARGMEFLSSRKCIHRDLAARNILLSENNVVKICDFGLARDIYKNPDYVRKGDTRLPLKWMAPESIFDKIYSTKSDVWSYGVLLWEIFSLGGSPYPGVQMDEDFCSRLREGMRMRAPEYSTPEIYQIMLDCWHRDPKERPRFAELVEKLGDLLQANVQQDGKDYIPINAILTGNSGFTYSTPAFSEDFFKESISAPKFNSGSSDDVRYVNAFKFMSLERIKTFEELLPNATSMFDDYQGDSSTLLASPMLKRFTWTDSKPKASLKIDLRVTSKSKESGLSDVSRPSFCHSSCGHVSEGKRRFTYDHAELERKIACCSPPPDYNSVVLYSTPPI
T3 sequence (P35968 20-1356, species assumed): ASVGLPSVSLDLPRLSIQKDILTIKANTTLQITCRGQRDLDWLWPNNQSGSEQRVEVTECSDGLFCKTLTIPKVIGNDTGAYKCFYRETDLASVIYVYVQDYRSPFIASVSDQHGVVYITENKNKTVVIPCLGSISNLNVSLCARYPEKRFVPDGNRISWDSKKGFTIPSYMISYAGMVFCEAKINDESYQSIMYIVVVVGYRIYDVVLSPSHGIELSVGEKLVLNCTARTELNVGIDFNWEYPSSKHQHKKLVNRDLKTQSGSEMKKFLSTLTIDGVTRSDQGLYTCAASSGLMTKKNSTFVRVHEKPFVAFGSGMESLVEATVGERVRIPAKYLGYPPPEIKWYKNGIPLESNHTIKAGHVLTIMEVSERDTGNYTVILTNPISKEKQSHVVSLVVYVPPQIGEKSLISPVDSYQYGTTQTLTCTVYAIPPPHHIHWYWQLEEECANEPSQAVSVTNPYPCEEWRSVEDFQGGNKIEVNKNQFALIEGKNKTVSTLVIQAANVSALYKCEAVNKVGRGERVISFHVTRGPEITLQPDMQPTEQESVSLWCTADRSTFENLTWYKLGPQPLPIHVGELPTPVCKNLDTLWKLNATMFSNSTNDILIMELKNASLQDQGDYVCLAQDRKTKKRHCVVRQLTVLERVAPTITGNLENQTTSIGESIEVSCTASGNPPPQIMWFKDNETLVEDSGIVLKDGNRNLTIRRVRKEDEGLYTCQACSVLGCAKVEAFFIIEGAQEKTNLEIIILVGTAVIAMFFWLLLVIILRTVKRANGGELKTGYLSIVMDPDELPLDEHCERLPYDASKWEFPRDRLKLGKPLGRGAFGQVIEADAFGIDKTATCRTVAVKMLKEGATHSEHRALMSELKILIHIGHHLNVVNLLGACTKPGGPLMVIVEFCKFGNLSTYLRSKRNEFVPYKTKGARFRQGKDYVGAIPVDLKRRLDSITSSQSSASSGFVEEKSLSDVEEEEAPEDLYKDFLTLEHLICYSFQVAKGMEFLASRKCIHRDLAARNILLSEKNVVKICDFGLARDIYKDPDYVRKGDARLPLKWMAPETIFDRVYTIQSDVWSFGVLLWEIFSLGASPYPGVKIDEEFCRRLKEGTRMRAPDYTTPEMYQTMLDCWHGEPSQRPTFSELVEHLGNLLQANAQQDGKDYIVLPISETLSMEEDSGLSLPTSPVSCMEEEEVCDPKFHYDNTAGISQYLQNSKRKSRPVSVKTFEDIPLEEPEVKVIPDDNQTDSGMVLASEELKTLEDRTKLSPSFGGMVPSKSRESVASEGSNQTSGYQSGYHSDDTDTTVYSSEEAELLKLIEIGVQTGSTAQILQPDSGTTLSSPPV

Row | effect on 125I-VEGF165 binding to PAE/NP1 cells ([3]; FIG. 1, peptide 100 μM, porcine aortic endothelial cells expressing only NP-1) | inhibition of 125I-VEGF165 binding to PAE/NP-1 cells ([3]; FIG. 2) | binding of radiolabelled VEGF to breast carcinoma cell line MDA-MB-231 [4] | effect on 125I-VEGF165 binding to PAE/KDR cells [5] | effect on 125I-VEGF165 binding to PAE/Flt-1 cells [6] | Substance | radiolabelled VEGF binding to HUVEC [1] | VEGF-induced KDR phosphorylation [2] | inhibition of VEGF binding to HUVECs [7]
1 | inhibition | specific, selective inhibition | inhibited | no effect | no effect | EG3287: bicyclic form of SEQ ID NO. 2, SCKNTDSRCKARQLELNERTCRCDKPRR, amino acids 138 to 165 within VEGF (not fully specified (N-terminus, C-terminus, bridges); also: bicyclic, two disulfides, pairing not given here; listed as Homo sapiens) | inhibited | inhibited | 
2 |  |  |  |  |  | SEQ ID NO. 1: CSCKNTDSRCKARQLELNERTCRC, shortest active peptide of Soker et al; amino acids 22-44 of exon 7 and amino acid 1 of exon 8 (listed as Homo sapiens) |  |  | active
